The text below walks through data of US20060024296A1 (AbbVie / Abbott, published 2006).

The target in test [1] is T1, human CS1-Fc fusion protein (human, UniProt Q9NQ25 23-226, limits assumed).
T1 construct: analyte of the BIAcore experiment; not shown: Fc part
Description: SPR BIAcore 2000.

For test [2], the target named is T2, CS1 ECD-myc-GPI fusion protein on NSO cells (human, UniProt Q9NQ25 23-226, glycosyl phosphatidylinositol linkage for cell surface expression).
T2 construct: also called NSO-CS1
Description: FACS, NSO-CS1 cells.

The target in test [3] is T3, human CS1 (native, on K562 and Daudi cells) (human, UniProt Q9NQ25 23-335).
T3 construct: K562 and Daudi cells 'are known to express native CS1'; also called SLAMF7; CRACC
Description: FACS, Daudi cells.

For a further test, the target named is T4, NSO-FcRn.
T4 construct: negative control transfectant; also called FcRn on NSO cells
Description: FACS, NSO-FcRn cells.

Test [4] concerns the target T2, CS1 ECD-myc-GPI fusion protein on NSO …. Description: cell-based or functional assay.
For test [5], the target named is T1, human CS1-Fc fusion protein. Description: SPR BIAcore 2000, antibody immobilised, CS1-Fc analyte, bivalent analyte model.
In test [6] the target is T5, hu75/mu25 chimeric CS1-Fc (human/mouse chimera; human).
T5 construct: entry starts with the signal peptide; not shown: human gamma 1 Fc tag of the NIF Fc vector
T5 chain: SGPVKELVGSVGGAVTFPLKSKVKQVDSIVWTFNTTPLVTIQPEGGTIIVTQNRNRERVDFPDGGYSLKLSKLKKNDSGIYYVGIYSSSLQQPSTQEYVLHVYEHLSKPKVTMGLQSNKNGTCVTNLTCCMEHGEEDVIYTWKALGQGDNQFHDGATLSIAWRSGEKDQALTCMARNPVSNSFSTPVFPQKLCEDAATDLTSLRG
Description: sandwich ELISA, Fc-captured construct.

Test [7] concerns the target T6, mu25/hu75 chimeric CS1-Fc (human/mouse chimera; human).
T6 construct: entry starts with the signal peptide; not shown: human gamma 1 Fc tag of the NIF Fc vector
Description: sandwich ELISA, Fc-captured construct.

Test [8] has as its target T7, huCS1 (human CS1 extracellular domain, amino acids 1-227, fused to human gamma 1 Fc) (human, UniProt P01857-1 99-330 = IgG part).
T7 construct: domain: human Fc tag; secreted protein in 293/T supernatant; also called human CS1-Fc
Description: sandwich ELISA, Fc-captured construct.

Test [9] deals with T3, human CS1 (native, on K562 and Daudi …). Description: FACS, K562 cells.
For test [10], the target named is T8, CS1 ECD-Fcγ3 fusion protein (human, UniProt Q9NQ25 23-226).
T8 construct: also called CS1-G3; CS1-γ3; not shown: constant region of IgG3 (human Fc-γ3)
Description: direct binding ELISA, coated human CS1-human Fcγ3.

B1: Luc90 (antibody, IgG2b, V domains shown)
VH: QVQLQQPGAELVRPGASVKLSCKASGYSFTTYWMNWVKQRPGQGLEWIGMIHPSDSETRLNQKFKDKATLTVDKSSSTAYMQLSSPTSEDSAVYYCARSTMIATRAMDYWGQGTSVTVSS
VL: DIVMTQSQKSMSTSVGDRVSITCKASQDVITGVAWYQQKPGQSPKLLIYSASYRYTGVPDRFTGSGSGTDFTFTISNVQAEDLAVYYCQQHYSTPLTFGAGTKLELK
notes: mouse monoclonal, IgG2b; subclone Luc90.H1 used in BIAcore; also called Luc90-H1, D9; Luc90.H1
Consider B1, for which, in [1], the “fold higher binding affinity than Luc34.1” value worked out at 28 fold. Besides, in test [1], the “fold higher binding affinity than Luc 63.2” value worked out at 5.5 fold. In addition, the “FACS (MFI)” value in test [2] was 237 MFI; in [3], 10.1 MFI; with NSO-FcRn it was under 5 MFI; in [9], 9.7 MFI. The “cytotoxicity of the target cells (ADCC, LDH release, PBMC effectors 20:1)” value in test [4] is about 50%. Further, the Kd in test [5] turned out to be 6.29 nM. In test [5], this molecule showed an off-rate (koff) of 0.000281 s⁻¹. The molecule further showed a kon in test [5] of 45600 M⁻¹ s⁻¹. The binding result in test [6] is on record as “binds”; in test [7], “no binding (tested: 2 ug/ml)”; in test [8], “binds”.

B2: Luc34 (antibody, IgG1, V domains shown)
VH: QVQLQQSGAELARPGASVKLSCKASGYTFTSYWMQWVKQRPGQGLEWIGAIYPGDGDTRYTQKFKGKATLTADKSSSTAYMQLSSLASEDSAVYYCARGKVYYGSNPFAYWGQGTLVTVSA
VL: DIQMTQSSSYLSVSLGGRVTITCKASDHINNWLAWYQQKPGNAPRLLISGATSLETGVPSRFSGSGSGKDYTLSITSLQTEDVATYYCQQYWSTPWTFGGGTKLEIK
notes: subclone Luc34.1 used in BIAcore; also called Luc34-1; Luc34-3
For the molecule B2, the “FACS (MFI)” value in test [2] was 127 MFI; in test [3], 10.3 MFI; in the test with NSO-FcRn, under 5 MFI; in test [9], 26.2 MFI. This molecule also registered a Kd in test [5] of 173 nM. In addition, the koff in [5] was 0.00127 s⁻¹. The kon in test [5] stood at 7480 M⁻¹ s⁻¹. Further, the binding result in test [6] is listed as “binds”; in test [7] it was “no binding (tested: 2 ug/ml)”; in test [8], “binds”.

B3: HuLuc63 (antibody, human IgG1, V domains shown)
VH: EVQLVESGGGLVQPGGSLRLSCAASGFDFSRYWMSWVRQAPGKGLEWIGEINPDSSTINYAPSLKDKFIISRDNAKNSLYLQMNSLRAEDTAVYYCARPDGNYWYFDVWGQGTLVTVSS
VL: DIQMTQSPSSLSASVGDRVTITCKASQDVGIAVAWYQQKPGKVPKLLIYWASTRHTGVPDRFSGSGSGTDFTLTISSLQPEDVATYYCQQYSSYPYTFGQGTKVEIK
notes: human IgG1/κ, transiently expressed in 293-H cells; also called humanized Luc63; HuLuc63 IgG1/κ antibody
In [10], B3 gave a 50% effective concentration (EC50) of 0.0701 µg/mL.

B4: Luc63 (antibody, IgG2a, V domains shown)
VH: EVKLLESGGGLVQPGGSLKLSCAASGFDFSRYWMSWVRQAPGKGLEWIGEINPDSSTINYTPSLKDKFIISRDNAKNTLYLQMSKVRSEDTALYYCARPDGNYWYFDVWGAGTTVTVSS
VL: DIVMTQSHKFMSTSVGDRVSITCKASQDVGIAVAWYQQKPGQSPKLLIYWASTRHTGVPDRFTGSGSGTDFTLTISNVQSEDLADYFCQQYSSYPYTFGGGTKLEIK
notes: mouse monoclonal, IgG2a; also called Lu 63; Luc63-1
As to B4, the “FACS (MFI)” value in test [2] was 214 MFI; in [3], 12.7 MFI; in the test with NSO-FcRn, under 5 MFI; in test [9] it was 15.8 MFI. Moreover, the response in test [10] was half-maximal at 0.0661 µg/mL (EC50). Moreover, in test [5], the Kd stood at 34.6 nM.

B5: Luc69 (antibody, V domains shown)
VH: QVQLQQSGPELVKPGASVKISCKASGYAFSNSWMNWVKQRPGQGLEWIGRIYPGDGDTKSNGKFKGKATLTADKSSRAAYMQLSSLTSVDSAVYFCARSTMIMTGAMDYWGQGTSVTVSS
VL: DIVMTQSHKFMSTSVGDRVIITCKASQDVSTAVAWYQQKPGQSPKLLIYSASFRYTGVPDRFTGSGSGTDFTFTVSSVQAEDLAVYYCQQHYSTPPYTFGGGTKLEIK
notes: mouse monoclonal
Regarding B5, the results for the binding result in test [6], in test [7] and in test [8] were “binds”, “no binding (tested: 2 ug/ml)” and “binds”, respectively.
